Laboratory results reported in the supplement of paper PMC11780869.

Tested on: Bacillus subtilis
Experiment: cleaved RNA product abundance (RNA/gDNA barcode ratio) relative to median wild-type variant (ratio to wild type); higher = more accumulation of the downstream cleavage product
Summary of the method: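 B. subtilis strains with chromosomally integrated reporter mRNAs (truncated aprE or tetM) holding barcoded, mutagenized RNase Y cleavage-site windows grew in LB at 37°C from OD600 0.0003 to 0.3. Cleaved product abundance is each construct's RNA:gDNA barcode ratio, scaled to the median construct with the unmutated site. It came from sequencing barcodes of gel-selected, reverse-transcribed cleaved RNA and of genomic DNA.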

[1] = experiment (reporter, strain, medium): exp 2b: truncated aprE reporter, strain BJT200, cleavage site: cggR-gapA (positions -7 to +36 mutated)
[2] = experiment (reporter, strain, medium): exp 4a: truncated aprE reporter, strain BJT201 with 2% xylose (RNase J1 expressed), cleavage site: cggR-gapA (positions -7 to +36 mutated)
[3] = experiment (reporter, strain, medium): exp 8a: truncated aprE reporter, strain BJT201 with 2% xylose (RNase J1 expressed), cleavage site: glnRA (positions -5 to +31 mutated)
[4] = experiment (reporter, strain, medium): exp 6: tetM reporter, strain 168, cleavage site: cggR-gapA (positions -7 to +36 mutated)

## ACAGACGAAGGAGCCGCAAAGAAGCTATTAAGGTATGAATAATCCCTCAATATAAATATCTCTCACTTATTTAAA
[1]
  cleaved RNA product abundance: 0.0903
[2]
  cleaved RNA product abundance: 0.0903

## ACAGACGAAGGAGCCGCAAAGAAGTTATTAAGGGTTGAATCATCCCTCAATATAAATATCTCTCACTTATTTAAA
[1]
  cleaved RNA product abundance: 0.5

## ACAGACGAAGGAGCCGCAAAGAAATTATTAAGGGATGAATAATACCTCAATATAAATATCTCTCACTTATTTAAA
[1]
  cleaved RNA product abundance: 0.141
[2]
  cleaved RNA product abundance: 0.153

## CGACATGTCCCGCTTCTTTCATTAATCCGTTAGCAACTGTTTTGCTATATACATTTGCCTTTTAAGAGGAGGAAT
[3]
  cleaved RNA product abundance: 0.413

## ACAGACGAAGGAGCCGCAAAGAAGTTATTAAGGAATGAATAATCCCTTAATATAAATATCTCTCACTTATTTAAA
[1]
  cleaved RNA product abundance: 0.68
[2]
  cleaved RNA product abundance: 0.588

## ACAGACGAAGGAGCCGCAAAGAAGTTATTAAGGGATGAATAATCACTCAATATAAATATCTCTCACTTATTTAAA
[1]
  cleaved RNA product abundance: 0.111
[2]
  cleaved RNA product abundance: 0.14
[4]
  cleaved RNA product abundance: 0.0875

## ACAGACGAAGGAGCCGCAAAGAAGTTATAAAGGGATGAATAATCTCTCAATATAAATATCTCTCACTTATTTAAA
[2]
  cleaved RNA product abundance: 0.338

## ACAGACGAAGGAGCCGCAAAGAAGTAATTAAGGGATGAATAATCCCTCAATATAAAAATCTCTCACTTATTTAAA
[2]
  cleaved RNA product abundance: 0.282

## CGACATGTCCCGCTTCTTTCATTAATCTGTTAGCAACTGTTTTGCTATATACAATTACCTTTTAAGAGGAGGAAT
[3]
  cleaved RNA product abundance: 0.89

## ACAGACGAAGGAGCCGCAAAGAATTTATTAAGGGATGAATAATCCCTCCATATAAATATCTCTCACTTATTTAAA
[2]
  cleaved RNA product abundance: 0.424

## ACAGACGAAGGAGCCGCAAAGAAGTTATTAAGGGATGAATATTCACTCAATATAAATATCTCTCACTTATTTAAA
[2]
  cleaved RNA product abundance: 0.18

## ACAGACGAAGGAGCCGCAAAGAAGTTATTAAGGGATGAATAATCCATCAATATATATATCTCTCACTTATTTAAA
[1]
  cleaved RNA product abundance: 0.19
[2]
  cleaved RNA product abundance: 0.191

## ACAGACGAAGGAGCCGCAAAGAAGTTATTAAGGGATTAATAATCCCTCAATATAAATGTCTCTCACTTATTTAAA
[2]
  cleaved RNA product abundance: 0.707

## ACAGACGAAGGAGCCGCAAAGAAGTTATTAAGGAATTAATAATCCCTCAATATAAATATCTCTCACTTATTTAAA
[1]
  cleaved RNA product abundance: 0.103
[2]
  cleaved RNA product abundance: 0.137

## CGACATGTCCCGCTTCTTTCATTATTCCGTGAGCAACTGTTTTGCTATATACATTTACCTTTTAAGAGGAGGAAT
[3]
  cleaved RNA product abundance: 0.62

## ACAGACGAAGGAGCCGCAAAGAAGTTATTCAGGGATGAATAATCCCTAAATATAAATATCTCTCACTTATTTAAA
[1]
  cleaved RNA product abundance: 0.695
[2]
  cleaved RNA product abundance: 0.713

## ACAGACGAAGGAGCCGCAAAGAAGTTATTAAAGGATGAATAATCCCTCAAAATAAATATCTCTCACTTATTTAAA
[1]
  cleaved RNA product abundance: 0.148
[2]
  cleaved RNA product abundance: 0.152

## CGACATGTCCCGCTTCTTTCATTAATCCGTTAGCAACTGTTTTGCTATATAAATTTATCTTTTAAGAGGAGGAAT
[3]
  cleaved RNA product abundance: 2.04

## ACAGACGAAGGAGCCGCAAAGAAGTTATTAAGGGACGAATAATCACTCAATATAAATATCTCTCACTTATTTAAA
[2]
  cleaved RNA product abundance: 0.0856

## ACAGACGAAGGAGCCGCAAAGAAGTTATTAAGGCATGAATAATCCCTCAAGATAAATATCTCTCACTTATTTAAA
[1]
  cleaved RNA product abundance: 0.0843
[2]
  cleaved RNA product abundance: 0.142

## ACAGACGAAGGAGCCGCAAAGAAGTGATTAAGGGATGAATAATCCATCAATATAAATATCTCTCACTTATTTAAA
[1]
  cleaved RNA product abundance: 0.27
[2]
  cleaved RNA product abundance: 0.257

## ACAGACGAAGGAGCCGCAAAGAAGTCATTAAGGGATGAATAATGCCTCAATATAAATATCTCTCACTTATTTAAA
[2]
  cleaved RNA product abundance: 0.13

## ACAGACGAAGGAGCCGCAAAGAAGTTATTAATGGATGAATATTCCCTCAATATAAATATCTCTCACTTATTTAAA
[2]
  cleaved RNA product abundance: 0.107

## CGACATGTCCCGCTTCTTTCATTAATCCTTTAGCAACTATTTTGCTATATACATTTACCTTTTAAGAGGAGGAAT
[3]
  cleaved RNA product abundance: 0.828

## ACAGACGAAGGAGCCGCAAAGAAATTATTAAGGGATGAATATTCCCTCAATATAAATATCTCTCACTTATTTAAA
[2]
  cleaved RNA product abundance: 0.595

## ACAGACGAAGGAGCCGCAAAGAAGATATTAAAGGATGAATAATCCCTCAATATAAATATCTCTCACTTATTTAAA
[1]
  cleaved RNA product abundance: 0.199
[2]
  cleaved RNA product abundance: 0.264

## ACAGACGAAGGAGCCGCAAAGAAGTTATTAAGGGATGAATAGTCCTTCAATATAAATATCTCTCACTTATTTAAA
[2]
  cleaved RNA product abundance: 0.359

## ACAGACGAAGGAGCCGCAATGAAGTTATTAAGGGATGAATAATCTCTCAATATAAATATCTCTCACTTATTTAAA
[1]
  cleaved RNA product abundance: 0.942
[2]
  cleaved RNA product abundance: 0.845

## ACAGACGAAGGAGCCGCATAGAAGTTATTAATGGATGAATAATCCCTCAATATAAATATCTCTCACTTATTTAAA
[1]
  cleaved RNA product abundance: 0.142
[2]
  cleaved RNA product abundance: 0.214

## CGACATGTCCCGCTTCTTTCATTAATCCGTTAGCAACTGTGTAGCTATATACATTTACCTTTTAAGAGGAGGAAT
[3]
  cleaved RNA product abundance: 0.23

## CGACATGTCCCGCTTCTTTCATTATTCCGTTAGAAACTGTTTTGCTATATACATTTACCTTTTAAGAGGAGGAAT
[3]
  cleaved RNA product abundance: 0.309

## ACAGACGAAGGAGCCGCAAAGAAGTTAATAAGGGATGAATAATCCATCAATATAAATATCTCTCACTTATTTAAA
[1]
  cleaved RNA product abundance: 0.166
[2]
  cleaved RNA product abundance: 0.224

## CGACATGTCCCGCTTCTTTCATTAATCCATTAGCAACTGTTTTGCTATATAAATTTACCTTTTAAGAGGAGGAAT
[3]
  cleaved RNA product abundance: 0.754

## ACAGACGAAGGAGCCGCAAAGAAGTTATTAAGGGATGAATATCCCCTCAATATAAATATCTCTCACTTATTTAAA
[2]
  cleaved RNA product abundance: 0.455

## ACAGACGAAGGAGCCGCAAAGAAGTTATTAAGGGATGAACAATCCGTCAATATAAATATCTCTCACTTATTTAAA
[2]
  cleaved RNA product abundance: 0.109

## ACAGACGAAGGAGCCGCAATGAAGATATTAAGGGATGAATAATCCCTCAATATAAATATCTCTCACTTATTTAAA
[2]
  cleaved RNA product abundance: 0.667

## ACAGACGAAGGAGCCGCAAAGAAATTATTAAGGGATGAAAAATCCCTCAATATAAATATCTCTCACTTATTTAAA
[1]
  cleaved RNA product abundance: 0.852
[2]
  cleaved RNA product abundance: 0.598

## ACAGACGAAGGAGCCGCACAGAAGTCATTAAGGGATGAATAATCCCTCAATATAAATATCTCTCACTTATTTAAA
[2]
  cleaved RNA product abundance: 0.43

## ACAGACGAAGGAGCCGCAAAGAAGTTATTAAGGGATGAAAAATCCCTCAATATAAATAGCTCTCACTTATTTAAA
[2]
  cleaved RNA product abundance: 0.554

## ACAGACGAAGGAGCCGCAGAGAAGTTATTAAGGGATTAATAATCCCTCAATATAAATATCTCTCACTTATTTAAA
[2]
  cleaved RNA product abundance: 0.696

## ACAGACGAAGGAGCCGCAAATAAGTTATTATGGGATGAATAATCCCTCTATATAAATATCTCTCACTTATTTAAA
[2]
  cleaved RNA product abundance: 0.483

## ACAGACGAAGGAGCCGCAAAGAAGTTATTAAGAGATGAATAATCCCTCGATATAAATATCTCTCACTTATTTAAA
[2]
  cleaved RNA product abundance: 0.0848

## ACAGACGAAGGAGCCGCAAAGAACTTATTAAGGGATGAATAAACCCTCAATATAAATATCTCTCACTTATTTAAA
[1]
  cleaved RNA product abundance: 0.224
[2]
  cleaved RNA product abundance: 0.265

## ACAGACGAAGGAGCCGCAAAGAAGTTATGAAGGGATGAATAATCCGTCAATATAAATATCTCTCACTTATTTAAA
[2]
  cleaved RNA product abundance: 0.222

## ACAGACGAAGGAGCCGCAAAGAAGTTATTAAGGCATGAATAATCCCTAAATATAAATATCTCTCACTTATTTAAA
[1]
  cleaved RNA product abundance: 0.114
[2]
  cleaved RNA product abundance: 0.151

## ACAGACGAAGGAGCCGCAAAGAATTGATTAAGGGATGAATAATCCCTCAATATAAATATCTCTCACTTATTTAAA
[2]
  cleaved RNA product abundance: 0.439

## ACAGACGAAGGAGCCGCAAAGAAGTCATTAAGGGATGAATAATCCCTCAATATAAATATCTCTCACTTATTTAAA
[1]
  cleaved RNA product abundance: 0.186
[2]
  cleaved RNA product abundance: 0.255
[4]
  cleaved RNA product abundance: 0.244

## CGACATGTCCCGCTTCTTTCATTAATCCGTTAGCAACTGTTTTACTATATACATATACCTTTTAAGAGGAGGAAT
[3]
  cleaved RNA product abundance: 1.11

## CGACATGTCCCGCTTCTTTCATTAATCCGTTATCAACTGTTTTGCTATTTACATTTACCTTTTAAGAGGAGGAAT
[3]
  cleaved RNA product abundance: 0.111

## CGACATGTCCCGCTTCTTTCATTAATCCGTTAGCAACTGTTTTGATATAAACATTTACCTTTTAAGAGGAGGAAT
[3]
  cleaved RNA product abundance: 0.399

## ACAGACGAAGGAGCCGCAAAGAATTTATTAAGGGATAAATAATCCCTCAATATAAATATCTCTCACTTATTTAAA
[1]
  cleaved RNA product abundance: 0.767
[2]
  cleaved RNA product abundance: 0.595

## CGACATGTCCCGCTTCTTTCATTAATCCGTTAGCAACTGTTTTGCTATATTTATTTACCTTTTAAGAGGAGGAAT
[3]
  cleaved RNA product abundance: 0.495

## CGACATGTCCCGCTTCTTTCATTAATCCGTTAGCAACTGTTTAACTATATACATTTACCTTTTAAGAGGAGGAAT
[3]
  cleaved RNA product abundance: 0.378

## ACAGACGAAGGAGCCGCAAAGAAGTTATTCAGGGTTGAATAATCCCTCAATATAAATATCTCTCACTTATTTAAA
[2]
  cleaved RNA product abundance: 0.412

## ACAGACGAAGGAGCCGCAAAGAAGTTATTATGGGATGAATAATCCTTCAATATAAATATCTCTCACTTATTTAAA
[1]
  cleaved RNA product abundance: 0.315
[2]
  cleaved RNA product abundance: 0.382

## ACAGACGAAGGAGCCGCAAAGAAGTTATTAAGGAAGGAATAATCCCTCAATATAAATATCTCTCACTTATTTAAA
[2]
  cleaved RNA product abundance: 0.233

## CGACATGTCCCGCTTCTTTCATTAATCCGTTAGCAACGGTTGTGCTATATACATTTACCTTTTAAGAGGAGGAAT
[3]
  cleaved RNA product abundance: 0.353

## ACAGACGAAGGAGCCGCAATGAAGTTATTAATGGATGAATAATCCCTCAATATAAATATCTCTCACTTATTTAAA
[1]
  cleaved RNA product abundance: 0.126
[2]
  cleaved RNA product abundance: 0.202

## ACAGACGAAGGAGCCGCAAAGAAGTGATGAAGGGATGAATAATCCCTCAATATAAATATCTCTCACTTATTTAAA
[1]
  cleaved RNA product abundance: 0.446
